To fix the notation:
B1: Pistol ribozyme (parent)
chain: GGGUCGUUGUUCCAUAAUCGCGUGGAUAUGGCACGCAAGUUUCUACCGGGCACCGUAAAUGUCCGACUGGAGCCGUUCGGGCGGCUAUAAACAGACCUCAGGCCCGAAGCGUGGCGGCACCUGCCGCCGGUGGUAAAAAAGAUCGGAAGAGCACACGUCU

The variants in the data set derive from B1. Put plainly: aptazyme ON/OFF ratio, guanine; higher = stronger switching; co-transcriptional cleavage with and without guanine.
As for U7C U8C U10G C12A, the “aptazyme ON/OFF ratio” value came out at 1.13.

With U7C U8C U11A, the “aptazyme ON/OFF ratio” value was 1.66.

Regarding U7C U8C U11C, the “aptazyme ON/OFF ratio” value amounted to 2.42.

As to U7C U8C U11G, the “aptazyme ON/OFF ratio” value stood at 1.31.

For U7C U8G G9A C12A C13A, the “aptazyme ON/OFF ratio” value amounted to 1.28.

With U7C U8G G9A C12A C13G, the “aptazyme ON/OFF ratio” value worked out at 1.16.

With U7C U8G G9A C12A C13U, the “aptazyme ON/OFF ratio” value was determined as 1.29.

With U7C U8G G9A U10G U11A C12A, the “aptazyme ON/OFF ratio” value was 1.47.

Consider U7C U8G G9A U10G U11A C12G, for which the “aptazyme ON/OFF ratio” value is 1.24.

In the case of U7C U8G G9A U10G U11A C12U, the “aptazyme ON/OFF ratio” value came to 1.16.

Turning to U7C U8G G9A U10G C12G C13U, the “aptazyme ON/OFF ratio” value was 1.17.

On to U7C U8G G9A U10G C12G C13A, for which the “aptazyme ON/OFF ratio” value amounted to 1.25.

In the case of U7C U8G G9A U10G C12G C13G, the “aptazyme ON/OFF ratio” value stood at 1.1.

Take U7C U8G G9A U10G C12U C13U: the “aptazyme ON/OFF ratio” value is 1.26.

U7C U8G G9A U10G C12U C13A: the “aptazyme ON/OFF ratio” value came out at 1.46.

For U7C U8G G9A U10G C12U C13G, the “aptazyme ON/OFF ratio” value is 1.19.

For the variant U7C U8C U10C U11G C12G, the “aptazyme ON/OFF ratio” value worked out at 1.18.

With U7C U8C U10C U11G C12U, the “aptazyme ON/OFF ratio” value was 1.2.

On to U7C U8C U10C U11G C12A, for which the “aptazyme ON/OFF ratio” value is 1.38.

Consider U7C U8G G9A U10A U11G C12A, for which the “aptazyme ON/OFF ratio” value is 1.06.

U7C U8G G9A U10A U11G C12U: the “aptazyme ON/OFF ratio” value amounted to 1.38.

In the case of U7C U8G G9A U10A U11G C12G, the “aptazyme ON/OFF ratio” value was determined as 1.25.

Turning to U7C U8G G9A U10C C12G C13U, the “aptazyme ON/OFF ratio” value was determined as 1.31.

Take U7C U8G G9A U10C C12G C13G: the “aptazyme ON/OFF ratio” value was 1.12.

On to U7C U8G G9A U10C C12G C13A, for which the “aptazyme ON/OFF ratio” value came out at 1.13.

U7C U8C U11A C13G: the “aptazyme ON/OFF ratio” value is 1.19.

With U7C U8C U11A C13A, the “aptazyme ON/OFF ratio” value is 1.21.

Take U7C U8C U11A C13U: the “aptazyme ON/OFF ratio” value amounted to 1.27.

With U7C U8G G9A U10A U11C C13U, the “aptazyme ON/OFF ratio” value stood at 1.04.

With U7C U8G G9A U10A U11C C13A, the “aptazyme ON/OFF ratio” value was found to be 1.03.

Take U7C U8G G9A U10A U11C C13G: the “aptazyme ON/OFF ratio” value is 1.02.

In the case of U7C U8C U11A C12U, the “aptazyme ON/OFF ratio” value came out at 1.16.

With U7C U8C U11A C12A, the “aptazyme ON/OFF ratio” value came out at 1.34.

As to U7C U8C U11A C12G, the “aptazyme ON/OFF ratio” value came out at 1.14.

Consider U7C U8G G9A U10C U11G C12U C13G, for which the “aptazyme ON/OFF ratio” value was found to be 1.14.

As to U7C U8G G9A U10C U11G C12U C13U, the “aptazyme ON/OFF ratio” value amounted to 1.28.

Take U7C U8G G9A U10C U11G C12U C13A: the “aptazyme ON/OFF ratio” value worked out at 1.26.

For the variant U7C U8G G9A U10C C12A C13G, the “aptazyme ON/OFF ratio” value worked out at 1.09.

Turning to U7C U8G G9A U10C C12A C13U, the “aptazyme ON/OFF ratio” value is 1.14.

For U7C U8G G9A U10C C12A C13A, the “aptazyme ON/OFF ratio” value was 1.13.

In the case of U7C U8G G9A U10C C12U, the “aptazyme ON/OFF ratio” value amounted to 2.39.

In the case of U7C U8G G9A U10C C12G, the “aptazyme ON/OFF ratio” value was found to be 1.23.

Take U7C U8G G9A U10C C12A: the “aptazyme ON/OFF ratio” value amounted to 1.18.

On to U7C U8C U10C U11C C13U, for which the “aptazyme ON/OFF ratio” value is 1.38.

For U7C U8G G9A U10A U11G C12U C13G, the “aptazyme ON/OFF ratio” value was 1.25.

Turning to U7C U8G G9A U10A U11G C12U C13U, the “aptazyme ON/OFF ratio” value amounted to 1.35.

Consider U7C U8G G9A U10A U11G C12U C13A, for which the “aptazyme ON/OFF ratio” value came to 1.24.

For U7C U8C U10G U11C C12A C13A, the “aptazyme ON/OFF ratio” value amounted to 1.16.

Regarding U7C U8C U10G U11C C12A C13U, the “aptazyme ON/OFF ratio” value came to 1.15.

In the case of U7C U8C U10G U11C C12A C13G, the “aptazyme ON/OFF ratio” value worked out at 1.11.

On to U7C U8C U11A C12A C13G, for which the “aptazyme ON/OFF ratio” value was 1.15.

On to U7C U8C U11A C12A C13U, for which the “aptazyme ON/OFF ratio” value was found to be 1.31.

Consider U7C U8C U11A C12A C13A, for which the “aptazyme ON/OFF ratio” value is 1.2.

As for U7C U8G G9A U10A U11G C13A, the “aptazyme ON/OFF ratio” value was found to be 1.2.

In the case of U7C U8G G9A U10A U11G C13G, the “aptazyme ON/OFF ratio” value was determined as 1.02.

In the case of U7C U8G G9A U10A U11G C13U, the “aptazyme ON/OFF ratio” value came out at 1.27.

On to U7C U8G G9A U10C U11G C12A C13G, for which the “aptazyme ON/OFF ratio” value worked out at 1.13.

Turning to U7C U8G G9A U10C U11G C12A C13U, the “aptazyme ON/OFF ratio” value is 1.14.

For U7C U8G G9A U10C U11G C12A C13A, the “aptazyme ON/OFF ratio” value came to 1.12.

U7C U8G G9A U10C U11C C12U C13A: the “aptazyme ON/OFF ratio” value came to 1.02.

Regarding U7C U8G G9A U10C U11C C12U C13G, the “aptazyme ON/OFF ratio” value amounted to 1.01.

As for U7C U8G G9A U10C U11C C12U C13U, the “aptazyme ON/OFF ratio” value amounted to 1.02.

As for U7C U8C U10G U11G C12A C13G, the “aptazyme ON/OFF ratio” value is 1.11.

As for U7C U8C U10G U11G C12A C13U, the “aptazyme ON/OFF ratio” value was found to be 1.13.

For the variant U7C U8C U10G U11G C12A C13A, the “aptazyme ON/OFF ratio” value worked out at 1.14.

U7C U8C U10G U11A C12A: the “aptazyme ON/OFF ratio” value was determined as 1.3.

U7C U8C U10G U11A C12G: the “aptazyme ON/OFF ratio” value was 1.14.

Take U7C U8C U10G U11A C12U: the “aptazyme ON/OFF ratio” value amounted to 1.12.

Consider U7C U8C U10C U11G C13G, for which the “aptazyme ON/OFF ratio” value stood at 1.24.

Regarding U7C U8C U10C U11G C13A, the “aptazyme ON/OFF ratio” value was found to be 1.2.

On to U7C U8C U10C U11G C13U, for which the “aptazyme ON/OFF ratio” value is 1.34.

Take U7C U8G G9A U10A U11C C12U C13G: the “aptazyme ON/OFF ratio” value turned out to be 1.08.

As for U7C U8G G9A U10A U11C C12U C13U, the “aptazyme ON/OFF ratio” value was 1.08.

For the variant U7C U8G G9A U10A U11C C12U C13A, the “aptazyme ON/OFF ratio” value is 1.14.

On to U7C U8C U10G C12G C13A, for which the “aptazyme ON/OFF ratio” value stood at 1.11.

As for U7C U8C U10G C12G C13U, the “aptazyme ON/OFF ratio” value stood at 1.13.

In the case of U7C U8C U10G C12G C13G, the “aptazyme ON/OFF ratio” value came out at 1.11.

With U7C U8G G9A U10C U11C C12A C13G, the “aptazyme ON/OFF ratio” value worked out at 1.04.

With U7C U8G G9A U10C U11C C12A C13U, the “aptazyme ON/OFF ratio” value stood at 1.06.

On to U7C U8G G9A U10C U11C C12A C13A, for which the “aptazyme ON/OFF ratio” value was 1.03.

For U7C U8G G9A U10A C12U C13A, the “aptazyme ON/OFF ratio” value was determined as 1.18.

Regarding U7C U8G G9A U10A C12U C13G, the “aptazyme ON/OFF ratio” value was found to be 1.17.

Turning to U7C U8G G9A U10A C12U C13U, the “aptazyme ON/OFF ratio” value came out at 1.27.

Consider U7C U8G G9A, for which the “aptazyme ON/OFF ratio” value worked out at 1.12.

The values are drawn from the RNAGym collection of RNA variant scans (doi:10.1021/acssynbio.7b00057).
